Measured values: US11278600B2, “Human alpha-galactosidase variants” (Codexis, Inc., priority 2014, dated 2022)

B1: 98 (protein)
chain: LDNGLARTPTMGWLHWERFMCNLDCQEEPDSCISEKLFMEMAELMVSEGWKDAGYEYLCIDDCWMAPQRDSEGRLQADPQRFPHGIRQLANYVHSKGLKLGIYADVGNKTCAGFPGSFGYYDIDAQTFADWGVDLLKFDGCYCDSLENLADGYKHMSRALNRTGRSIVYSCEWPLYMWPFQKPNYTEIRQYCNHWRNFADIDDSWKSIKSILDWTSFNQERIVDVAGPGGWNDPDMLVIGNFGLSWNQQVTQMALWAIMAAPLFMSNDLRHISPQAKALLQDKDVIAINQDPLGKQGYQLRQGDNFEVWERPLSGLAWAVAMINRQEIGGPRSYTIAVASLGKGVACNPACFITQLLPVKRKLGFYEWTSRLRSHINPTGTVLLQLENTMQMSKDLLL
modifications: Synthetic Polypeptide sequence of Variant No. 98 of mature Human GLA
B2: 102 (protein)
chain: LDNGLARTPTMGWLHWERFMCNLDCQEEPDSCISEKLFMEMAELMVSEGWKDAGYEYLCIDDCWMAPQRDSEGRLQADPQRFPHGIRQLANYVHSKGLKLGIYADVGNKTCAGFPGSFGYYDIDAQTFADWGVDLLKFDGCYCDSLENLADGYKHMSLALNRTGRSIVYSCEWPLYMWPFQKPNYTEIRQYCNHWRNFADIDDSWKSIKSILDWTSFNQERIVDVAGPGGWNDPDMLVIGNFGLSWNQQVTQMALWAIMAAPLFMSNDLRHISPQAKALLQDKDVIAINQDPLGKQGYQLRQGDNFEVWERPLSGEAWAVAMINRQEIGGPRSYTIAVASLGKGVACNPACFITQLLPVKRKLGFYEWTSRLRSHINPTGTVLLQLENTMQMSKDLLL
modifications: Synthetic Polypeptide sequence of Variant No. 102 of mature Human GLA
B3: 33 (protein)
chain: LDNGLARTPTMGWLHWERFMCNLDCQEEPDSCISEKLFMEMAELMVSEGWKDAGYEYLCIDDCWMAPQRDSEGRLQADPQRFPHGIRQLANYVHSKGLKLGIYADVGNKTCAGFPGSFGYYDIDAQTFADWGVDLLKFDGCYCDSLENLADGYKHMSLALNRTGRSIVYSCEWPLYMWPFQKPNYTEIRQYCNHWRNFHDIDDSWKSIKSILDWTSFNQERIVDVAGPGGWNDPDMLVIGNFGLSWNQQVTQMALWAIMAAPLFMSNDLRHISPQAKALLQDKDVIAINQDPLGKQGYQLRQGDNFEVWERPLSGLAWAVAMINRQEIGGPRSYTIAVASLGKGVACNPACFITQLLPVKRKLGFYSWTSRLRSHINPTGTVLLQLENTMQMSKDLLL
modifications: Synthetic Polypeptide sequence of Variant No. 33 of mature Human GLA
B4: 103 (protein)
chain: LDNGLARTPTMGWLHWERFMCNLDCQEEPDSCISEKLFMEMAELMVSEGWKDAGYEYLCIDDCWMAPQRDSEGRLQADPQRFPHGIRQLANYVHSKGLKLGIYADVGNKTCAGFPGSFGYYDIDAQTFADWGVDLLKFDGCYCDSLENLADGYKHMSLALNRTGRSIVYSCEWPLYMWPFQKPNYTEIRQYCNHWRNFADIDDSWKSIKSILDWTSFNQERIVDVAGPGGWNDPDMLVIGNFGLSWNQQVTQMALWAIMAAPLFMSNDLRHISPQAKALLQDKDVIAINQDPLGKQGYQLRQGDNFEVWERPLSGLAWAVAMINRQEIGGPRSYTIAVASLGKGVACNPACFITQLLPVKRKLGFYEWTSRLRSHINPTGTVLFQLENTMQMSKDLLL
modifications: Synthetic Polypeptide sequence of Variant No. 103 of mature Human GLA
B5: 100 (protein)
chain: LDNGLARTPTMGWLHWERFMCNTDCQEEPDSCISEKLFMEMAELMVSEGWKDAGYEYLCIDDCWMAPQRDSEGRLQADPQRFPHGIRQLANYVHSKGLKLGIYADVGNKTCAGFPGSFGYYDIDAQTFADWGVDLLKFDGCYCDSLENLADGYKHMSLALNRTGRSIVYSCEWPLYMWPFQKPNYTEIRQYCNHWRNFADIDDSWKSIKSILDWTSFNQERIVDVAGPGGWNDPDMLVIGNFGLSWNQQVTQMALWAIMAAPLFMSNDLRHISPQAKALLQDKDVIAINQDPLGKQGYQLRQGDNFEVWERPLSGLAWAVAMINRQEIGGPRSYTIAVASLGKGVACNPACFITQLLPVKRKLGFYEWTSRLRSHINPTGTVLLQLENTMQMSKDLLL
modifications: Synthetic Polypeptide sequence of Variant No. 100 of mature Human GLA
B6: 99 (protein)
chain: LDNGLARTPTMGWLHWERFMCNMDCQEEPDSCISEKLFMEMAELMVSEGWKDAGYEYLCIDDCWMAPQRDSEGRLQADPQRFPHGIRQLANYVHSKGLKLGIYADVGNKTCAGFPGSFGYYDIDAQTFADWGVDLLKFDGCYCDSLENLADGYKHMSLALNRTGRSIVYSCEWPLYMWPFQKPNYTEIRQYCNHWRNFADIDDSWKSIKSILDWTSFNQERIVDVAGPGGWNDPDMLVIGNFGLSWNQQVTQMALWAIMAAPLFMSNDLRHISPQAKALLQDKDVIAINQDPLGKQGYQLRQGDNFEVWERPLSGLAWAVAMINRQEIGGPRSYTIAVASLGKGVACNPACFITQLLPVKRKLGFYEWTSRLRSHINPTGTVLLQLENTMQMSKDLLL
modifications: Synthetic Polypeptide sequence of Variant No. 99 of mature Human GLA
B7: 104 (protein)
chain: LDNGLARTPTMGWLHWERFMCNLDCQEEPDSCISEKLFMEMAELMVSEGWKDAGYEYLCIDDCWMAPQRDSEGRLQADPQRFPHGIRQLANYVHSKGLKLGIYADVGNKTCAGFPGSFGYYDIDAQTFADWGVDLLKFDGCYCDSLENLADGYKHMSLALNRTGRSIVYSCEWPLYMWPFQKPNYTEIRQYCNHWRNFADIDDSWKSIKSILDWTSFNQERIVDVAGPGGWNDPDMLVIGNFGLSWNQQVTQMALWAIMAAPLFMSNDLRHISPQAKALLQDKDVIAINQDPLGKQGYQLRQGDNFEVWERPLSGLAWAVAMINRQEIGGPRSYTIAVASLGKGVACNPACFITQLLPVKRKLGFYEWTSRLRSHINPTGTVLLQVENTMQMSKDLLL
modifications: Synthetic Polypeptide sequence of Variant No. 104 of mature Human GLA
B8: 101 (protein)
chain: LDNGLARTPTMGWLHWERFMCNLDCQEEPDSCISEKLFMEMAELMVSEGWKDAGYEYLCIDDCWMAPQRDSEGRLQADPQRFPHGIRQLANYVHSKGLKLGIYADVGNKTCAGFPGSFGYYDIDAQTFADWGVDLLKFDGCYCDSLENLADGYKHMSLALNRTGRSIVYSCEWPLYMWPFQKPNYTEIRQYCNHWRNFADIDDSWKSIKSILDWTSFNQERIVDVAGPGGWNDPDMLVIGNFGLSWNQQVTQMALWAIMAAPLFMSNDLRHISPQAKALLQDKDVIAINQDPLGKQGYQLRQGDNFEVWERPLSGDAWAVAMINRQEIGGPRSYTIAVASLGKGVACNPACFITQLLPVKRKLGFYEWTSRLRSHINPTGTVLLQLENTMQMSKDLLL
modifications: Synthetic Polypeptide sequence of Variant No. 101 of mature Human GLA

Experiments:
Assay type in all cases: biochemical
[1] = HTP-analysis of supernatants pretreated with base (MUGal hydrolysis); settings: challenge at pH 7.1; activity of the variant/activity of WT GLA (SEQ ID NO: 5); yeast supernatant
Outline: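 GLA variants were secreted by transformed INVSc1 yeast grown 66-84 h at 30° C. Supernatants were exposed to neutral-to-basic buffers (pH 7.0-9.7) at 37° C for 1-18 h, then assayed with MUGal in acidic citrate/McIlvaine buffer, with fluorescence read after quenching.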

[2] = HTP-analysis of yeast culture supernatants, no challenge (MUGal hydrolysis); settings: activity of the variant/activity of WT GLA (SEQ ID NO: 5), yeast supernatant
Outline: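 GLA variants expressed in yeast INVSc1, secreted into SD-Ura broth over 66-84 h at 30° C; clarified supernatants tested without challenge. Supernatant mixed with McIlvaine buffer pH 4.8 and 2 mM MUGal (citrate/KCl, pH 4.6), 37° C for 30-180 min, carbonate-quenched, fluorescence Ex 355/Em 448 nm.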

[3] = HTP-analysis of supernatants pretreated with acid (MUGal hydrolysis); settings: challenge at pH 4.2; activity of the variant/activity of WT GLA (SEQ ID NO: 5); yeast supernatant
Outline: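 Supernatants from INVSc1 yeast secreting GLA variants were challenged at 37° C. for 1-3 h in McIlvaine buffer at pH 3.3-4.3. Residual activity was then measured on 4 mM MUGal substrate stock at pH 4.8 with citrate buffer pH 4.3, over 30-180 min at 37° C. Reactions were quenched with sodium carbonate and read by fluorescence (Ex 355/Em 448 nm).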

| Molecule | Relative Activity of GLA Variants After Challenge at pH 7.1 [1] | Relative Activity of GLA Variants After No Challenge (NC) [2] | Relative Activity of GLA Variants After Challenge at pH 4.2 [3] |
| --- | --- | --- | --- |
| B1 | + (+ = 0.5 to 1.5 relative activity over WT GLA (SEQ ID NO: 5)) | + (+ = 0.5 to 1.5 relative activity over WT GLA (SEQ ID NO: 5)) | + (+ = 0.5 to 1.5 relative activity over WT GLA (SEQ ID NO: 5)) |
| B2 | +++ (+++ = >2.5 relative activity over WT GLA (SEQ ID NO: 5)) | +++ (+++ = >2.5 relative activity over WT GLA (SEQ ID NO: 5)) | +++ (+++ = >2.5 relative activity over WT GLA (SEQ ID NO: 5)) |
| B3 | + (+ = 0.5 to 1.5 relative activity over WT GLA (SEQ ID NO: 5)) | + (+ = 0.5 to 1.5 relative activity over WT GLA (SEQ ID NO: 5)) | + (+ = 0.5 to 1.5 relative activity over WT GLA (SEQ ID NO: 5)) |
| B4 | ++ (++ = >1.5 to 2.5 relative activity over WT GLA (SEQ ID NO: 5)) | ++ (++ = >1.5 to 2.5 relative activity over WT GLA (SEQ ID NO: 5)) | ++ (++ = >1.5 to 2.5 relative activity over WT GLA (SEQ ID NO: 5)) |
| B5 | + (+ = 0.5 to 1.5 relative activity over WT GLA (SEQ ID NO: 5)) | + (+ = 0.5 to 1.5 relative activity over WT GLA (SEQ ID NO: 5)) | + (+ = 0.5 to 1.5 relative activity over WT GLA (SEQ ID NO: 5)) |
| B6 | + (+ = 0.5 to 1.5 relative activity over WT GLA (SEQ ID NO: 5)) | + (+ = 0.5 to 1.5 relative activity over WT GLA (SEQ ID NO: 5)) | + (+ = 0.5 to 1.5 relative activity over WT GLA (SEQ ID NO: 5)) |
| B7 | ++ (++ = >1.5 to 2.5 relative activity over WT GLA (SEQ ID NO: 5)) | ++ (++ = >1.5 to 2.5 relative activity over WT GLA (SEQ ID NO: 5)) | ++ (++ = >1.5 to 2.5 relative activity over WT GLA (SEQ ID NO: 5)) |
| B8 | +++ (+++ = >2.5 relative activity over WT GLA (SEQ ID NO: 5)) | +++ (+++ = >2.5 relative activity over WT GLA (SEQ ID NO: 5)) | +++ (+++ = >2.5 relative activity over WT GLA (SEQ ID NO: 5)) |
